The text below walks through data of patent US20240034813A1 (Janssen / Centocor, published 2024).

The target of assay [1] is T1, recombinant cMet/HGFR with c-terminal His-tag, Cy5-labeled (UniProt P08581 25-932, limits assumed, Cy5 label (reacted with Cy5 Mono NHS Ester; sites not stated)).
T1 construct: Commercial protein; also called Cy5-c-MET; Cy5-labeled c-MET antigen; not shown: C-terminal His-tag
As to the kind of experiment: competitive TR-FRET (Eu-amivantamab/Cy5-c-MET), EC50 ratio vs Reference Material; Ex. 2 Formulation 3 (acetate), 3 months at 40 C. The text has this:
(§1) In this procedure, varying concentrations of unlabeled bispecific EGFR-cMet antibody sample compete with donor fluorophore (Europium (Eu) chelate) labeled bispecific EGFR-cMet antibody for binding to an acceptor fluorophore (Cy5)-labeled c-MET antigen. Excitation of the donor fluorophore results in a transfer of energy to the bound acceptor fluorophore (FRET process). The resultant FRET is detected by emission of light at 665 nm using a microplate reader capable of measuring time-resolved fluorescence. Sample dose response curves are compared to the Reference Material (RM).
(§2) c-MET Binding Materials and Methods. Certified commercial cMet, a recombinant cMet/HGFR with c-terminal His-tag is reacted with certified commercial Cy5 Mono NHS Ester to produce Cy5-labeled c-MET. Validated bispecific EGFR-cMet antibody is reacted with certified commercial Europium (Eu) chelate to produce Eu labeled bispecific EGFR-cMet antibody. […] Fluorescence is then measured by spectrophotometry at 665 nm, plotted against antibody concentration and analyzed by a four-parameter logistic model. The antibody concentration required to obtain half of the maximum fluorescence response (EC50) is determined for RM, assay control and samples. The potencies of assay control and samples are calculated based on the ratio of the sample (or control) and RM EC50 values and reported as a percentage activity relative to the RM.
In general terms: TR-FRET usually uses a lanthanide donor and a delayed reading to cut background.

Assay [2] has as its target T2, recombinant human EGFR/ErbB1/HER1 with C-terminal His tag, Cy5-labeled (human, UniProt P00533 25-645, Cy5 label (reacted with Cy5 Mono NHS Ester; sites not stated)).
T2 construct: Commercial protein; also called Cy5-EGFR; Cy5-labeled EGFR antigen; not shown: C-terminal His tag
Briefly: competitive TR-FRET (Eu-amivantamab/Cy5-EGFR), EC50 ratio vs Reference Material; Ex. 2 Formulation 1 (10 mM histidine), T0, 40 C table.
Description: (§3) In this procedure, varying concentrations of unlabeled bispecific EGFR-cMet antibody sample compete with donor fluorophore (Europium (Eu) chelate) labeled bispecific EGFR-cMet antibody for binding to an acceptor fluorophore (Cy5)-labeled EGFR antigen. Excitation of the donor fluorophore results in a transfer of energy to the bound acceptor fluorophore (FRET process). The resultant FRET is detected by emission of light at 665 nm using a microplate reader capable of measuring time-resolved fluorescence. Sample dose response curves are compared to the RM.
as §2, with “EGFR” for “c-MET”, “EGFR,” for “cMet,”, “human EGFR/ErbB1/HER1” for “cMet/HGFR”, “C-terminal His tag” for “c-terminal His-tag”, “EGFR.” for “c-MET.”, “Eu-labeled” for “Eu labeled”

Assay [3] concerns the target T2, recombinant human EGFR/ErbB1/HER1 with …. Briefly: competitive TR-FRET (Eu-amivantamab/Cy5-EGFR), EC50 ratio vs Reference Material; Ex. 11 drug product, 6 months at 5 C.
Description: as §3
as §2, with “EGFR” for “c-MET”, “EGFR,” for “cMet,”, “human EGFR/ErbB1/HER1” for “cMet/HGFR”, “C-terminal His tag” for “c-terminal His-tag”, “EGFR.” for “c-MET.”, “Eu-labeled” for “Eu labeled”

The target is the same in assay [4]. Briefly: competitive TR-FRET (Eu-amivantamab/Cy5-EGFR), EC50 ratio vs Reference Material; Ex. 2 Formulation 3 (acetate), 3 months at 40 C.
Description: as §3
as §2, with “EGFR” for “c-MET”, “EGFR,” for “cMet,”, “human EGFR/ErbB1/HER1” for “cMet/HGFR”, “C-terminal His tag” for “c-terminal His-tag”, “EGFR.” for “c-MET.”, “Eu-labeled” for “Eu labeled”

Assay [5] has as its target T1, recombinant cMet/HGFR with c-terminal …. Briefly: competitive TR-FRET (Eu-amivantamab/Cy5-c-MET), EC50 ratio vs Reference Material; Ex. 12 drug product with rHuPH20, 6 months at 25 C.
Description: as §1, §2

Assay [6] has the same target. As to the kind of experiment: competitive TR-FRET (Eu-amivantamab/Cy5-c-MET), EC50 ratio vs Reference Material; Ex. 12 drug product with rHuPH20, 12 months at 5 C.
Description: as §1, §2

For assay [7] the target is unchanged. Briefly: competitive TR-FRET (Eu-amivantamab/Cy5-c-MET), EC50 ratio vs Reference Material; Ex. 3 acetate formulation, 6 months at 25 C then shaking up to 72 h.
Description: as §1, §2

For assay [8] the target is unchanged. As to the kind of experiment: competitive TR-FRET (Eu-amivantamab/Cy5-c-MET), EC50 ratio vs Reference Material; Ex. 11 drug product, 5 months at 5 C.
Description: as §1, §2

B1: amivantamab (bispecific antibody, human IgG1, kappa)
heavy 1: not shown
light 1: not shown
heavy 2: not shown
light 2: DIQMTQSPSSVSASVGDRVTITCRASQGISNWLAWFQHKPGKAPKLLIYAASSLLSGVPSRFSGSGSGTDFTLTISSLQPEDFATYYCQQANSFPITFGQGTRLEIKRTVAAPSVFIFPPSDEQLKSGTASVVCLLNNFYPREAKVQWKVDNALQSGNSQESVTEQDSKDSTYSLSSTLTLSKADYEKHKVYACEVTHQGLSSPVTKSFNRGEC
notes: The samples tested were high concentration (160 mg/mL) formulations, fresh or stored or stressed; also called JNJ-61186372; bispecific EGFR-cMet antibody
Regarding B1, the “cMET Binding % activity relative to RM” value in assay [1] is 85%; in assay [7] it was 97%. Further, the “EGFR Binding % activity relative to RM” value amounted to 103% in assay [2] and 46% in assay [4]. Besides, in assay [3], the “EGFR Binding activity relative to Reference Material (%)” value stood at 84%. Moreover, the “cMET Binding activity relative to Reference Material (%)” value was 103% in assay [5], 97% in assay [6] and 108% in assay [8].
